Assay: yeast display, Sf9 membrane polyspecificity reagent, FACS + sequencing; frameworks hold sequencing errors
Summary of the method: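 Genes from sorted yeast were amplified by colony PCR, read by MiSeq 2 × 250 sequencing and filtered on CDR length. These cells carried a synthetic nanobody library in Saccharomyces cerevisiae BJ5465 and were sorted by FACS into low and high (top ~1%) gates on anti-HA and streptavidin fluorescence. Polyreactivity is labelled according to the gate of origin.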

Row | Sequence | polyreactivity (PSR sort gate)
1 | QVQLVESGGGLVQAGGSLRLSCAASGSIFKVNAMGWYRQAPGKEWELVARTYYADSVKGRFTISRDNAKNTVYLQMNSLKPEDTAVYYCAASRGIYNPYDYWGQGTQVTVSS | low polyreactivity
2 | QVQLVESGGGLVQAGGSLRLSCAASGRTFESYAMGWYRQAPGKERELVAAITSTDDRTYYADSVKGRFTISRDNAKNTVYLQMNSLKPEDTAVYYCAVESRRDDFEYDYWGQGTQVTVSS | low polyreactivity
3 | QFQLVESGGGLVQAGGSLRLSCAASGRIFVRYAMGLYRKAPGKERELVAAISKSGGSTYYADSVKGRFTISRDNAKNTVYLQMNSLKPEDTAVYYCNALVRRRPGYIRYDYWGQGTQVTVSS | low polyreactivity
4 | QVQLVESGGGLVQAGGSLRLSCAASGFTFRFYAMGWYRQAPAKERELVAAISRGGSTYYADSVKGRFTISRDNAKYTVYLQMNSLKPEDTAVFYCAKRGRYGDYWGQGTLVTVSS | high polyreactivity
5 | QVQLVESGGGLVHAGGSLRLSCAASGLTFVDNAMGWYRQAPGKERELVAAITKRGGRTYYADSVKGRFTISRDNAKNTVYSQMNSLKPEDTAVYYCAREAGNDSSRRLDYWGQGTQVTVSS | low polyreactivity
6 | QVQLQESGGDLEQAGGSLRLSCTAIGTISDVRFMGWYRQAPGKERELVATISYVTITYYADSVKGRFTISRDSEKHRVSAHDEPETGRYRGVLLRYYWGLGTQVTVSS | low polyreactivity
7 | QVQLVESCGGLVQAGGSLRLSSAASGSIFEYNAMGWYRQEPGKERELVGAITSTDSTYADSVKGRFTISRDNAKNTVYLQMNSLKPEDTAVYYCAAEDVIYYLTGQWREYDYWGQGTQVTVSS | low polyreactivity
8 | QVQLVESGGCLVQAGGSLRLSCAASGSTFGYYAMGWYRQAPGKERELVAAITSNDGSTHYADSVKGRFTISRDNAKNTVYLQMNSLKPEDTEVYYCNARSFVAVISSFVYWGQGTQVTVSS | low polyreactivity
9 | QVQLVESGGCLVQAGGSLRYSCAASGRTFRYYGMGWYRQAPGKERELVAAISWSGGSTYYADSVKGRFTISRDNAKNTVYLQMNSLKPEDTAVYYCKVAFHWQRFHHKSAAYDYWGQGTQVTVSS | high polyreactivity
10 | QVQLVESGGGLVQAGGSLRLSCAASGRIFATNAMGWYREAPGKERELVATITRSAGRTYYADSVKGRFTISRDNAKNSVYLQMNSLKPEDTAVYYCAASYWDTEPGYREYDYWGQGTQVTVSS | low polyreactivity
11 | QVQLVESGGGLVQAGGSLRLSCAASGRTFSFYAMGWYRQAPGKERELVAAISRGGTTNYADSVKGRFTISRDNAKNTVYLQMNSLKPEDTAVYYCAASYFRRGFYSIYEYDYWGQGTQVTVSS | low polyreactivity
12 | QVQLVESGGGLVQAGGSLRLSFAASGITFSLYVMGWYRQAPGKERELVAAISYRGGTTYYADSVKGRFTISRDNAKNTVYLQMNSLKPEDTAVYYCAARGSRDRQEAEYGYWGQGTQVTVSS | high polyreactivity
13 | QVQLVESGGGLVQAGGSLRLSCSASGSIFAIYTMGWYRQAPGTERELVAAISSRGDSTYYADSVKGRFTISRDNAKNTVYLQMNSLKPEDTAVYYCATRGDGVLGRRGYYWGQGTQVTVSS | high polyreactivity
14 | QVQLVESGGGLVQAGGSLRLSCAASGRTFGYNAMGWYRQAPGKERELVAAINWSGASTYYADSVKGRFTISRDNAKNTVYLQMNSLKPEDTAVYYCAADYSYIYGFDYWGQGTQVTLSS | low polyreactivity
15 | QVQLVESGGGLVQAGGSLRLSCAASGSTFSKNTMGWYRQAPGKERELVAAITGTGDSTYYADSVKGRFTISRDNAKYPVYLQMNSLKPEDTAVYYCAADAYSLCYESWGQGTKVTVSS | low polyreactivity
16 | QVQLVESGGGLVQAGGSLRLSCAASGRIFQGYVMGWYRQAQGQERELVAAITTGGSTYYADSVKGRFTISRDNAKNTVYLQMNSLKPEDTAVYYCNAVVYVSGYNPYIFGYWGQGTQVTVSS | low polyreactivity
17 | QVQLVESGGGLVQAGCSLRISCAASGRTFSVYTMGWYRQAPGKERELVAAIRGRGGSTYYADSVKGRFTISRDNAKIPVYLQMNSLKPEDTAVYYCAARASIFGATFDYWGQGTQVTVSS | high polyreactivity
18 | QVQLVESGGGLVQAGAILRLSCAASGYIFVSYYLGWYRQAPGKEREVVAAISWRGGSTFYADSVKGRFTISRDNAKNTVYLQMNSLKPEDTAVFYCAVDDWLDWLFADFGYWGQGTQVTVSS | low polyreactivity
19 | QVQLVESGGGLVQAGGSLRLSCAASGSILYSNMGWYRQAPGKERELVAAITYSGGRTYYADSVKGRFTISRDNAKNTVYLQMNSLKPEDTAVYYCAARLATYGASTYYYWGQGTQVTVSS | high polyreactivity
20 | QGQHVESGGGLVQAGGSLRLSCDASGSTIYQYAMGWYRQAPGKESELVAAISGISGSTSYADSVTGRFTISRDNAKNTVYLQMNSLKPEDTAVYDCAKGTAPIPYRGRVGTSKSDYWGQGTQVTVSS | low polyreactivity
21 | QVQLVESGGGLVQAGGSLRLSCAASGRIFSAYAIGCYRQSPWKERELVSAISRSGGRTYYADSVKGSFTISRDNAKNTVYLQMNSLKPEDTAVYYCAAARFAIVRGDYCGQGTQVTVSS | high polyreactivity
22 | QVQLVESGGGLVQAGGSLRLSCGAYGSIFVSHAMAWSRQAPGKASELVAAISQSGGSTYYADSVKGRFTISRDNAKNTVFLQMSSLKPEDTAVYYCATPSRSGFRIYDYWGQGTQVTVSS | low polyreactivity

Row | Sequence | polyreactivity (PSR sort gate)
23 | QVQLVESGGGLVQAGGSLRISCAPSGSTFYTNAMGWYRQAPGKEREFVAAISWSGSSTYADSVKGRFTISRDNAKNTVYLQMNSLKPEDTAVYYFAADWFKLRTDYYWGQGTQVTVSS | low polyreactivity
24 | QVQLVESGGGLVQAGGSLRLSCAASGRTFPYYVMGWYRQAPGKERELVAAIRRTGGSTYYADSLKGRFTISRDNAKNTVYLQMNSLKPEDTAVYYCTKRHSILYEGGYDYWGQGTQVTVSS | low polyreactivity
25 | QVQLVESGGGLVQAGGSLRLSCAASGLILSSNAMGWYRQAPGKERELVAAITWDGDRTYADSVKGRFTISRDNAKNTVYLQMNSLKPEDTAVYYCAAPSYVSYDSEFGYWGQGTQVTVSS | low polyreactivity
26 | QVQRVESGGGLVQAGGSLRLSCAASGITFGPYAMGWYRQAPGKERELVAAITGSGGITYYADSVKGRFTISRDNAKNTVYLQMNSLKPEDTAVYYCAAEYPYVYGTYSDSYTEYDYWGQGTQLTVSS | low polyreactivity
27 | QVQLVESGGGLVQAGGSLRLSCAASGSIFVFNAMGWYRQAPGKERELVAAISSSGGSTYYADSVKGRFTISRDNAKNTVYLQMNSLKPEDTAVYYCNKRLYYQRWPAAAREYWGQGTQVTVSS | high polyreactivity
28 | QVQLVESGGGLVQAGGSLSLRCAASGRIFTVYAMVWYRPAPGKEMELVAAISKRDGSTSYADSVKGRFTISRDNAKNTVYLQMNSLKPEDTAVYYCNARNHVQVLFRRDYWGQGTQVTVSS | low polyreactivity
29 | QVQLVESGGGLVQAGGSLRLICAASGSIFDTYAMGWYRQAPGKERELLATISWSGDSTYYADSVKGRFTISRDNAKNTVYLQMNCLKPEDTAVYYCAADVGQVSDHEDYDYWGQGTQVTVSS | low polyreactivity
30 | QVQLVESGGGLVQAGGSLRLSCAASGSTLAGYAMGWSRQAPGKERELVAAITRRGGRTYYADSVKGRFTISRDNAKNTVYLQMNSLKPEDTAVYYCAAQRSVKVDYWGQGTQVTVSS | high polyreactivity
31 | QVQLVESGGGLVQAGGSLRLSCAASGRIINDYTMGWYRQAPGKERELVAAITTSTGSTYADSVKGRFTISRDNAKNTVYLQMNSLKPEDTAVYYCAADSRPGKYYEDDSWGQGTQVTVSS | low polyreactivity
32 | QVQLVESGGGLVQAGGSLRLSCAASGSIFYSNAMGWYRQAPGKERELVAAIRRSGGSTYYADSVKGRFTISRDNAKNTVYLQMNSLKPEDTEVYYCAARYSGTYSFYLSVGSRGYNYWGQGTQVTVSS | high polyreactivity
33 | QVQLVESGGGLVQAGGSLRLSCAASGIIFGKYAMGWYRQAPGKERELVAAINYSGSTYYADSVKGRFTISRDNAKNTVYLQMNSLKPEDTAVYYCAAVLGLDTRYDYWGQGTQVTVSS | high polyreactivity
34 | QVQLVESGGGLVQAGGSLRLSCAASGSIFVSEYVMGWYRQAPGKERELVARIRWSSGSTYYADSVKGRFTISRDNAKNTVYLQMNSLKPEDTAVYYCAKATSSFYHYRYDYWGQGTQVTVSS | low polyreactivity
35 | QGQLVESGGGLVQAGGSLRLSCAASGSTFRYNTMGWYRQAPGKERELVAAISSGGGTHYADSVKGRFTISRDNAKNTVYLQMNSLKPEDTAVYYCAAQSRYRYQFYSGLEYDYWGQGTQVTVSS | low polyreactivity
36 | QVQLVESGGGLVQAGGSLRLSCAASGRIFDVNAMGWYRQAPGKERELVAAITYSDGSTYYADSVKGRFTISRDNAKNTVYLQMNSLKPEDTAVYYCAATQEPVTPQPYGYWGQGTQVTVSS | low polyreactivity
37 | QVQLVESGGGLVQAGGSLRLSCAASGSIFSYYAMGWSRQAPGKERELVAAIRRGGSTNYADSVKGRFTISRDNAKNTVYLQMNSLKPEDTAVYYCAASLGWRPSFSYYWGQGTQVTVSS | high polyreactivity
38 | QVQLVESGGGLVQAGGSLRLSCAASGRIFHYNAMGWYRQAPGKERELVAAISTGGSTNYADSVKGRFTISRDNAKNTVYLQMNSLKPEDTAVYYCAADHPVTYPTTKFDYWGQGTQVTVSS | low polyreactivity
39 | QVQLVESGGGLVQAGGSLRLSCSASGLTFTKYAMGWYRQAPGKEREFVATITSGGSTNYADSVKGRFTISRDNAKNTVYLQMNSLKPEDTAVYYCNRDNYKWPYWEFDYWGQGTQVTVSS | high polyreactivity
40 | QVQLVESGGGLVQAGGSLRLSCAASGRIFADNGMGWYRQAPGKERELVASITSSGGDTYYADSVKGRFTISRDNAKNTVYLQMNSLKPEDTAVYYCATECSWLFYGVWVVTFGDDYWGQGTQVTVSS | low polyreactivity
41 | QVQLVESGGGLVQAGGSLRLSCAASGFIFRYYARGWYRQGPGKERELVAAIDESGGSTYYADSVKGSFTISRDNSKKTVYLQMNSLKAVDTEVYYCAAYSNFYLNYGYGYWGQVTQVTVSS | high polyreactivity
42 | QVQLVESGRGLVQAGGSLRLSCAASGRTIKYYAMGWYRQAPGKDRELVAVISWSGGSTYYADSVKGRFTISRDNAKNTVYLQMNSLKPEDTAVYYCNAYVYAYYAGYNYWGQGTQLTVSS | high polyreactivity
43 | QVQLVESGGGLVQAGGSLRLSCAASGRIFSSYDMGWYRQAPGKERELVAAISYSGGNTYYADSVKGRFTISRDTAKNTVYLQMNSLKPEDTAVYYCAARLPGYRYYYWGQGTQVTVSS | high polyreactivity

Source: the nanobody polyreactivity screen of Harvey et al. (2022)
